Reference: PMC3102069, “Charge Isomers of Myelin Basic Protein: Structure and Interactions with Membranes, Nucleotide Analogues, and Calmodulin” (PLoS ONE, 2011)

Assays:
calmodulin = calmodulin (UniProt P0DP23); conditions: cited from earlier work
[1] = biological target: recombinant murine 18.5-kDa myelin basic protein, pseudodeiminated C8 charge isomer analogue (rmC8) (mouse); assay: ITC; CaM (100 µM) in the syringe titrated into rmMBP (5 µM) in the cell; 20 mM HEPES pH 7.5, 100 mM NaCl, 10 mM CaCl2; one-site model with floating, apparent stoichiometry; +30°C
[2] = biological target: recombinant murine 18.5-kDa myelin basic protein, C1 charge isomer analogue (rmC1) (mouse) (UniProt P04370); assay: as above
[3] = biological target: recombinant murine 18.5-kDa myelin basic protein, pseudodeiminated C8 charge isomer analogue (rmC8) (mouse); assay: ITC; CaM (100 µM) in the syringe titrated into rmMBP (5 µM) in the cell; 20 mM HEPES pH 7.5, 100 mM NaCl, 10 mM CaCl2; one-site model with floating, apparent stoichiometry; +15°C
[4] = biological target: recombinant murine 18.5-kDa myelin basic protein, C1 charge isomer analogue (rmC1) (mouse) (UniProt P04370); assay: as above
[5] = biological target: recombinant murine 18.5-kDa myelin basic protein, pseudodeiminated C8 charge isomer analogue (rmC8) (mouse); assay: SEC; Superdex 200 HR 10/30, room temperature; 20 mM HEPES pH 7.5, 100 mM NaCl, 10 mM CaCl2; rmMBP 25 µM with CaM 12.5-125 µM (rmMBP:CaM 2:1, 1:1, 1:2, 1:3, 1:5)
[6] = biological target: recombinant murine 18.5-kDa myelin basic protein, C1 charge isomer analogue (rmC1) (mouse) (UniProt P04370); assay: as above
[7] = biological target: recombinant murine 18.5-kDa myelin basic protein, pseudodeiminated C8 charge isomer analogue (rmC8) (mouse); assay: ITC; CaM (100 µM) in the syringe titrated into rmMBP (5 µM) in the cell; 20 mM HEPES pH 7.5, 100 mM NaCl, 10 mM CaCl2; one-site model with floating, apparent stoichiometry; +25°C
[8] = biological target: recombinant murine 18.5-kDa myelin basic protein, C1 charge isomer analogue (rmC1) (mouse) (UniProt P04370); assay: as above
[9] = biological target: recombinant murine 18.5-kDa myelin basic protein, pseudodeiminated C8 charge isomer analogue (rmC8) (mouse); assay: ITC; CaM (100 µM) in the syringe titrated into rmMBP (5 µM) in the cell; 20 mM HEPES pH 7.5, 100 mM NaCl, 10 mM CaCl2; one-site model with floating, apparent stoichiometry; +20°C
[10] = biological target: recombinant murine 18.5-kDa myelin basic protein, C1 charge isomer analogue (rmC1) (mouse) (UniProt P04370); assay: as above
[11] = biological target: recombinant murine 18.5-kDa myelin basic protein, pseudodeiminated C8 charge isomer analogue (rmC8) (mouse); assay: ITC; CaM (100 µM) in the syringe titrated into rmMBP (5 µM) in the cell; 20 mM HEPES pH 7.5, 100 mM NaCl, 10 mM CaCl2; one-site model with floating, apparent stoichiometry; 35°C (temperature from Table 3)
[12] = biological target: recombinant murine 18.5-kDa myelin basic protein, C1 charge isomer analogue (rmC1) (mouse) (UniProt P04370); assay: as above

Sequence of recombinant murine 18.5-kDa myelin basic protein, C1 charge isomer analogue (rmC1) (mouse) (P04370 other isoform, or with tags, fused parts or gaps): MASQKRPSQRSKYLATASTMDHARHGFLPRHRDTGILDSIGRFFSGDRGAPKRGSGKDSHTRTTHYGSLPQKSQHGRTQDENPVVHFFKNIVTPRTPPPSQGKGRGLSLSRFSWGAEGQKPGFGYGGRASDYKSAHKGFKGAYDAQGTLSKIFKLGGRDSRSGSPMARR

Row | stoichiometry N [1] | stoichiometry N [2] | Kd [3] [µM] | stoichiometry N [3] | stoichiometry N [4] | stoichiometry N [5] | stoichiometry N [6] | stoichiometry N [7] | stoichiometry N [8] | stoichiometry N [9] | stoichiometry N [10] | Kd [11] [µM] | stoichiometry N [11] | stoichiometry N [12] | Substance | Kd (calmodulin) [µM]
1 | – | – | – | – | – | – | – | – | – | – | – | – | – | – | myelin basic protein (brain) (from UniProt P02687) | 0.01
2 | 1 | 1.4 | 1.2 | 1.5 | 1.5 | 2 | 2 | 1.2 | 1.9 | 1.3 | 1.5 | 1.9 | 0.8 | 0.9 | calmodulin (CaM), recombinant (from UniProt P0DP23 1-149) (natural protein) | –
